Legend:
[1] = molecular target: T1, CD22 on CD22+ Daudi cells and on B cells within PBMCs (human, UniProt P20273 20-847); test: flow cytometry (MFI) on CD22+ Daudi cells
T1 construct: whole, on cells; The target was presented on human cells; also called human CD22
Procedure: (§1) FIG. 3. […] Binding activity at indicated concentrations is given as the MFI. Measurements were performed in triplicate; standard deviations are shown as bars.
(§2) Cells were pelleted at 200 g at 4° C. for 5 min and washed twice with 500 μl of FACS buffer. For detection of bound antibodies, cells were incubated with saturating amounts of FITC conjugated F(ab) Fragment goat anti-Human IgG, Fc specific (13 μg/ml; Jackson Immuno Research, West Grove, Pa.) for 45 min at 4° C. and washed again with 500 μl of FACS buffer. Stained cells were analyzed on a FACSCAN™ Flow Cytometer (BD Bioscience, San Jose, Calif.), and median fluorescence intensity (MFI) was calculated using […]™ software (BD Bioscience).

[2] = molecular target: T1, CD22 on CD22+ Daudi cells and on B …; test: ELISA on CD22+ Daudi cells
[3] = molecular target: T1, CD22 on CD22+ Daudi cells and on B …; test: flow cytometry on CD22+ Daudi cells, MFI, FITC anti-human Fc detection
Procedure: as §1, §2

[4] = molecular target: T1, CD22 on CD22+ Daudi cells and on B …; test: flow cytometry on CD22+ Daudi cells; reference hLL2 IgG
Procedure: as §1, §2

[5] = molecular target: T1, CD22 on CD22+ Daudi cells and on B …; test: ELISA on CD22+ Daudi cells (FIG. 2); reference hLL2

EC50 [1] [µg/mL]	Kd [2] [nM]	EC50 [3] [nM]	fold higher affinity (EC50) than hLL2 [4] [fold]	fold higher binding affinity than hLL2 [5] [fold]	Binder
1.03	7.6	6.9	–	–	humanized anti-CD22 LL2 antibody (hLL2, epratuzumab), IgG (antibody, V domains shown, Tested as IgG with human constant regions; also called hLL2 IgG) VH: QVQLQQSGAEVKKPGSSVKVSCKASGYTFTSYWLHWVRQAPGQGLEWIGYIYPRNDYTEYNQNFKDKATITADESTNTAYMELSSLRSEDTAFYFCARRDITTFYWGQGTTVTVSS VL: DIQLTQSPSSLSASVGDRVTMSCKSSQSVLYSANHKNYLAWYQQKPGKAPKLLIYWASTRESGVPSRFSGSGSGTDFTFTISSLQPEDIATYYCHQYLSSWTFGGGTKVQIKR
0.055	–	0.4	19	10	humanized RFB4 (hRFB4) anti-CD22 antibody, IgG (antibody, V domains shown, RFB4 CDRs were inserted into the FR and constant regions of hLL2; also called hRFB4 IgG) VH: QVQLVQSGAEVKKPGSSVKVSCKASGFTFSIYDMSWVRQAPGQGLEWVAYISSGGGTTYYPDTVKGRFTITADESTNTAYMELSSLRSEDTAFYFCARHSGYGSSYGVLFAYWGQGTLVTVSS VL: DIQLTQSPSSLSASVGDRVTISCRASQDISNYLNWYQQKPGKAPKLLIYYTSILHSGVPSRFSGSGSGTDYTFTISSLQPEDIATYYCQQGNTLPWTFGGGTKVQIKR
